Source: patent US20240043515A1 (Chugai, published 2024)
Residue numbers refer to the chain shown, from its start. Numbers in names are those of the source.

B1: EGL-ART4 (H240-Kn456/L73-k0//H240-H1446/L73-k0) (antibody, human IgG1, kappa)
heavy 1: QDQLVQSGAEVKKPGASVKVSCKASGFNIKDTYIQWVRQAPGQGLEWMGRIDPLRKQTKYREKFEGRVTITADTSTNTAYMELSSLRSEDTAVYYCVRSGREFDYWGQGTLVTVSSASTKGPSVFPLAPSSKSTSGGTAALGCLVKDYFPEPVTVSWNSGALTSGVHTFPAVLQSSGLYSLSSVVTVPSSSLGTQTYICNVNHKPSNTKVDKKVEPKSCDKTHTCPPCPAPEFQWGPMVFLFPPKPKDVLMISRTPEVTCVVVDVSDEEPEVKFNWYVDGVEVHNAKTKPREEQYNATYRVVSVLPVLHQDWLNGKEYKCKVSNKALPMPEEKTISKAKGQPREPQVCTLPPSRDELTKNQVSLWCLVKGFYPSDIAVEWESNGQPENNYKTTPPVLDSDGSFFLYSKLTVDKSRWQQGNVFSCSVMHEALHNHYTQKSLSLSP
heavy 2: QDQLVQSGAEVKKPGASVKVSCKASGFNIKDTYIQWVRQAPGQGLEWMGRIDPLRKQTKYREKFEGRVTITADTSTNTAYMELSSLRSEDTAVYYCVRSGREFDYWGQGTLVTVSSASTKGPSVFPLAPSSKSTSGGTAALGCLVKDYFPEPVTVSWNSGALTSGVHTFPAVLQSSGLYSLSSVVTVPSSSLGTQTYICNVNHKPSNTKVDKKVEPKSCDKTHTCPPCPAPELLAGPSVFLFPPKPKDVLMISRTPEVTCVVVDVSHEEPEVKFNWYVDGVEVHNAKTKPREEQYNATYRVVSVLPVLHQDWLNGKEYKCKVSNDALPMPEEETISKAKGQPREPQVYTLPPSRCELTKNQVSLSCAVKGFYPSDIAVEWESNGQPENNYKTTPPVLDSDGSFFLVSKLTVDKSRWQQGNVFSCSVMHEALHNHYTQKSLSLSP
light: DIQMTQSPSSLSASVGDRVTITCRASQDIHKYIAWYQQKPGQAPRLLIQYTSTLQPGVPSRFSGSGSGTDYTFTISSLQPEDIATYYCLQYEQLRTFGGGTKVEIKRTVAAPSVFIFPPSDEQLKSGTASVVCLLNNFYPREAKVQWKVDNALQSGNSQESVTEQDSKDSTYSLSSTLTLSKADYEKHKVYACEVTHQGLSSPVTKSFNRGEC
notes: Kn456: L234F/L235Q/G236W/S239M/T250V/H268D/D270E/S298A/T307P/A330M/I332E + Y349C/T366W; H1446: G236A/T250V/D270E/S298A/T307P/K326D/A330M/I332E/K334E + D356C/T366S/L368A/Y407V
B2: EGL-ART10 (H240-Kn494/L73-k0//H240-H1514/L73-k0) (antibody, human IgG1, kappa)
heavy 1: B1 heavy 1 with M329A
heavy 2: B1 heavy 2 with A235G, M329A
light: B1 light
notes: Kn494: L234F/L235Q/G236W/S239M/T250V/H268D/D270E/S298A/T307P/I332E + Y349C/T366W; H1514: T250V/D270E/S298A/T307P/K326D/I332E/K334E + D356C/T366S/L368A/Y407V
B3: EGL-ART12 (H240-Kn498/L73-k0//H240-H1518/L73-k0) (antibody, human IgG1, kappa)
heavy 1: B1 heavy 1 with E331I
heavy 2: B1 heavy 2 with A235G, E331I
light: B1 light
notes: Kn498: L234F/L235Q/G236W/S239M/T250V/H268D/D270E/S298A/T307P/A330M + Y349C/T366W; H1518: T250V/D270E/S298A/T307P/K326D/A330M/K334E + D356C/T366S/L368A/Y407V
B4: EGL-ART5 (H240-Kn462/L73-k0//H240-H1441/L73-k0) (antibody, human IgG1, kappa)
heavy 1: B1 heavy 1 with K325D, M329A, E331I
heavy 2: B1 heavy 2 with M329A, E331I
light: B1 light
notes: Kn462: L234F/L235Q/G236W/S239M/T250V/H268D/D270E/S298A/T307P/K326D + Y349C/T366W; H1441: G236A/T250V/D270E/S298A/T307P/K326D/K334E + D356C/T366S/L368A/Y407V
B5: EGL-ART6 (H240-Kn462/L73-k0//H240-H1445/L73-k0) (antibody, human IgG1, kappa)
heavy 1: B1 heavy 1 with K325D, M329A, E331I
heavy 2: B1 heavy 2 with M329K, E331D
light: B1 light
notes: H1445: G236A/T250V/D270E/S298A/T307P/K326D/A330K/I332D/K334E + D356C/T366S/L368A/Y407V

target: T1, human FcγRIIIa V extracellular domain (human, UniProt P08637 17-208); experiment: SPR; KD of G1d divided by KD of this antibody
T1 construct: extracellular domain; also called hFcγR IIIa V; FcγRIIIa allotype V158
T1 sequence (P08637 17-208 F176V): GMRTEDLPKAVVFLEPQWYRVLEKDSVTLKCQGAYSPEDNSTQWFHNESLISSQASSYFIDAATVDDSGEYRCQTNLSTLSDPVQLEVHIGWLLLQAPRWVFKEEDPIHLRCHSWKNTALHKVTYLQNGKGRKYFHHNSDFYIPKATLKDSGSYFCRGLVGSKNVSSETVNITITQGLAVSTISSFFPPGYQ
Protocol: (§1) The extracellular domains of FcγRs were produced by the method described in WO2014104165. The interaction between the produced antibodies and human FcγRs was analyzed using Biacore 8K+ by the method below. For the running buffer, 50 mM Na-Phosphate, 150 mM NaCl, and 0.05% Tween20 (pH 7.4) was used, and measurement was performed at 25° C. The sensor chip used was a Series S SA chip (GE Healthcare) onto which CaptureSelect Human Fab-kappa Kinetics Biotin Conjugate (Thermo Fisher Scientific) was immobilized. An antibody of interest was captured onto this chip, and each FcγR diluted with the running buffer was allowed to interact with it. The chip was regenerated using 10 mM Glycine-HCl (pH 1.5), and repeatedly used to capture antibodies and perform measurement. The dissociation constants KD (mol/L) of each antibody for FcγRs were calculated using Biacore Insight Evaluation Software, with a steady state affinity model for the dissociation constant for FcγRIIb and a 1:1 Langmuir binding model for the dissociation constants for the other FcγRs (Table 2).

Row | Binder | Relative value to KD between G1d and hFcgRs [times]
1 | B1 | 462
2 | B2 | 566
3 | B3 | 158
4 | B4 | 92.9
5 | B5 | 322

target: T2, human FcγRIa extracellular domain (human, UniProt P12314 16-292); experiment: SPR; KD of G1d divided by KD of this antibody
T2 construct: extracellular domain; also called hFcγR Ia
T2 sequence (P12314 16-292): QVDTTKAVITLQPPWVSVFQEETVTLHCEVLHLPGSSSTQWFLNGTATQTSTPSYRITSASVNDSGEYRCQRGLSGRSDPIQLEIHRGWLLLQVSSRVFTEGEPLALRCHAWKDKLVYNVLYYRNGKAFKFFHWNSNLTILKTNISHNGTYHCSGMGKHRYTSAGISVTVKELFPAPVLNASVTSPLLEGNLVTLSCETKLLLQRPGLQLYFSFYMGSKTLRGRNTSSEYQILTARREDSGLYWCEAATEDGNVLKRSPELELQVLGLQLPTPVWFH
Protocol: as §1

Row | Binder | Relative value to KD between G1d and hFcgRs [times]
6 | B1 | 2.9
7 | B2 | 3.4
8 | B3 | 3.4
9 | B4 | 0.5
10 | B5 | 1.2

target: T3, human FcγRIIa R extracellular domain (human, UniProt P12318 34-217); experiment: SPR; KD of G1d divided by KD of this antibody
T3 construct: extracellular domain; also called hFcγR IIa R; FcγRIIa allotype R131
T3 sequence (looked up): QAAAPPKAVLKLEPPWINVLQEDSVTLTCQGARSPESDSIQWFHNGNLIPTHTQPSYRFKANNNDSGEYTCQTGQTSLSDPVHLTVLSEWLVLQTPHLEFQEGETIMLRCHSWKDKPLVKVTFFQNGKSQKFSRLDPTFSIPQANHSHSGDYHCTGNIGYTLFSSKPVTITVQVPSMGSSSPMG
Protocol: as §1

Row | Binder | Relative value to KD between G1d and hFcgRs [times]
11 | B1 | 3.2
12 | B2 | 1.5
13 | B3 | 1
14 | B4 | 10.4
15 | B5 | 24.1

target: T4, human FcγRIIa H extracellular domain (human, UniProt P12318 34-217); experiment: SPR; KD of G1d divided by KD of this antibody
T4 construct: extracellular domain; also called hFcγR IIa H; FcγRIIa allotype H131
T4 sequence (looked up): T3 sequence (looked up) with R134H
Protocol: as §1

Row | Binder | Relative value to KD between G1d and hFcgRs [times]
16 | B1 | 6.3
17 | B2 | 2.7
18 | B3 | 3.1
19 | B4 | 33.9
20 | B5 | 118

target: T5, human FcγRIIb extracellular domain (human, UniProt P31994 43-217); experiment: SPR; KD of G1d divided by KD of this antibody
T5 construct: extracellular domain; also called hFcγR IIb
T5 sequence (looked up): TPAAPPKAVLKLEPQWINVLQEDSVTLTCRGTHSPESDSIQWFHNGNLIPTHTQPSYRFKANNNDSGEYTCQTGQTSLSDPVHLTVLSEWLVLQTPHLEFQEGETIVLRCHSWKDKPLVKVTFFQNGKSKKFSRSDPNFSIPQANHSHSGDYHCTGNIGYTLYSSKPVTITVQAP
Protocol: as §1

Row | Binder | Relative value to KD between G1d and hFcgRs [times]
21 | B1 | 0.9
22 | B2 | 1.4
23 | B3 | 0.5
24 | B4 | 1.3
25 | B5 | 3.4

target: T6, human FcγRIIIa F extracellular domain (human, UniProt P08637 17-208); experiment: SPR; KD of G1d divided by KD of this antibody
T6 construct: extracellular domain; also called hFcγR IIIa F; FcγRIIIa allotype F158
T6 sequence (P08637 17-208): as the sequence (P08637 17-208 F176V) above, with V160F counted along it
Protocol: as §1

Row | Binder | Relative value to KD between G1d and hFcgRs [times]
26 | B1 | 2520
27 | B2 | 1290
28 | B3 | 578
29 | B4 | 148
30 | B5 | 987

target: T7, hFcγRIIaH on Jurkat effector cells (human, UniProt P12318 34-317); experiment: cell-based or functional assay
T7 sequence (looked up): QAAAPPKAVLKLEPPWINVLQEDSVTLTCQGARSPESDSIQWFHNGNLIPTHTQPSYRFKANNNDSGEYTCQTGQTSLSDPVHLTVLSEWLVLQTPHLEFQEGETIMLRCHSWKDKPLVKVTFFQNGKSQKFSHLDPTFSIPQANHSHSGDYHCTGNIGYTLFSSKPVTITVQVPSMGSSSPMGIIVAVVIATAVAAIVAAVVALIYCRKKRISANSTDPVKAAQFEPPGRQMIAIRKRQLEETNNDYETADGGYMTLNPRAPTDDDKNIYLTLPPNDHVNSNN

Row | Binder | EC50 of reporter gene induction (ADCP Reporter Bioassay, Hepa1-6/hEREG target cells) [µg/mL]
31 | B1 | 0.0432
32 | B2 | 0.0419
33 | B3 | 0.085
34 | B4 | 0.0245
35 | B5 | 0.0192

target: hFcγRIIIaV on Jurkat effector cells (human, UniProt P08637 17-254); experiment: cell-based or functional assay
Sequence (P08637 17-254, form in doubt): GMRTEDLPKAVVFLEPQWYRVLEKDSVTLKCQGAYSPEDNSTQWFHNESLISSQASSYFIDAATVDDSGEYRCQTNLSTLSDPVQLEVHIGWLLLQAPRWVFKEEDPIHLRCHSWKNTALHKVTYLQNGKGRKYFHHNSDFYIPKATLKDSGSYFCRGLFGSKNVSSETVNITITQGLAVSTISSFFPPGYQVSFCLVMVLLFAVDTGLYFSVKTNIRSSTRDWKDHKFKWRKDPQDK

Row | Binder | EC50 of reporter gene induction (ADCC Reporter Bioassay, Hepa1-6/hEREG target cells) [µg/mL]
36 | B1 | 0.000789
37 | B2 | 0.000107
38 | B3 | 0.000304
39 | B4 | 0.00167
40 | B5 | 0.0015

target: T1, human FcγRIIIa V extracellular domain; experiment: SPR; KD for hFcγRIIb divided by KD for this FcγR
Protocol: as §1

Row | Binder | A/I ratio (KD for FcγRIIb divided by KD for each FcγR) [ratio]
41 | B1 | 15000
42 | B2 | 11400
43 | B3 | 9720
44 | B4 | 2060
45 | B5 | 2630

target: T3, human FcγRIIa R extracellular domain; experiment: SPR; KD for hFcγRIIb divided by KD for this FcγR
Protocol: as §1

Row | Binder | A/I ratio (KD for FcγRIIb divided by KD for each FcγR) [ratio]
46 | B1 | 22.5
47 | B2 | 6.6
48 | B3 | 12.8
49 | B4 | 49.9
50 | B5 | 42.4

target: T4, human FcγRIIa H extracellular domain; experiment: SPR; KD for hFcγRIIb divided by KD for this FcγR
Protocol: as §1

Row | Binder | A/I ratio (KD for FcγRIIb divided by KD for each FcγR) [ratio]
51 | B1 | 65.2
52 | B2 | 17.3
53 | B3 | 60.3
54 | B4 | 240
55 | B5 | 307

target: T6, human FcγRIIIa F extracellular domain; experiment: SPR; KD for hFcγRIIb divided by KD for this FcγR
Protocol: as §1

Row | Binder | A/I ratio (KD for FcγRIIb divided by KD for each FcγR) [ratio]
56 | B1 | 9940
57 | B2 | 3160
58 | B3 | 4310
59 | B4 | 399
60 | B5 | 976
